According to patent US20260224701A1:

Tests used:
Human rhB7-H3 (human) [1] = target: Human rhB7-H3 (human) (UniProt Q5ZPR3); assay: SPR (Biacore 8K/T200), purified IgG as ligand, rhB7-H3 as analyte
Human rhB7-H3 (human) [2] = target: Human rhB7-H3 (human) (UniProt Q5ZPR3); assay: SPR (Biacore 8K/T200), antibody captured via Fc, B7-H3 antigen as analyte at 1.17-75 nM
[3] = target: human 4Ig-B7-H3 extracellular domain (human) (UniProt Q5ZPR3); assay: biolayer interferometry (Octet), antibody captured on the probe, extracellular domain in solution
[4] = target: human 2Ig-B7-H3 extracellular domain (human) (UniProt Q5ZPR3); assay: as above
[5] = target: Porcine 4Ig-B7-H3 extracellular domain (porcine); assay: as above
Human rhB7-H3 (human) [6] = target: Human rhB7-H3 (human) (UniProt Q5ZPR3); assay: SPR (Biacore 8K/T200), Fab-SASA captured on immobilised albumin, B7-H3 as analyte, 1:1 model
[7] = target: human 4Ig-B7-H3 extracellular domain (human) (UniProt Q5ZPR3); assay: biolayer interferometry (Octet); ratio of the KD values against 2Ig-B7-H3 as reference

Sequence of human 4Ig-B7-H3 extracellular domain (human) (Q5ZPR3 29-466): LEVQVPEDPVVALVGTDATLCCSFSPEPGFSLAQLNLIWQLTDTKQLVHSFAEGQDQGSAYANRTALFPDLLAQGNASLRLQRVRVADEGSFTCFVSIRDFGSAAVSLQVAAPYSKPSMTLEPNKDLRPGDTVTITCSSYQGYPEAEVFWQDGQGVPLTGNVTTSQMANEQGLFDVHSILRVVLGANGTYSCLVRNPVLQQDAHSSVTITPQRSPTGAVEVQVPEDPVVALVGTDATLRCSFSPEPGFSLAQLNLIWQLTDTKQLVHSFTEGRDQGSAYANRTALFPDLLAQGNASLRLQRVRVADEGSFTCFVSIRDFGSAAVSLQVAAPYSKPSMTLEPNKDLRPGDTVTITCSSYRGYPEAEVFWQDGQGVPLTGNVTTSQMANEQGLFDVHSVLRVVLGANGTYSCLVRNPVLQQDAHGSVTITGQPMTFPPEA
Sequence of Porcine 4Ig-B7-H3 extracellular domain (porcine) (chain, as listed by the source): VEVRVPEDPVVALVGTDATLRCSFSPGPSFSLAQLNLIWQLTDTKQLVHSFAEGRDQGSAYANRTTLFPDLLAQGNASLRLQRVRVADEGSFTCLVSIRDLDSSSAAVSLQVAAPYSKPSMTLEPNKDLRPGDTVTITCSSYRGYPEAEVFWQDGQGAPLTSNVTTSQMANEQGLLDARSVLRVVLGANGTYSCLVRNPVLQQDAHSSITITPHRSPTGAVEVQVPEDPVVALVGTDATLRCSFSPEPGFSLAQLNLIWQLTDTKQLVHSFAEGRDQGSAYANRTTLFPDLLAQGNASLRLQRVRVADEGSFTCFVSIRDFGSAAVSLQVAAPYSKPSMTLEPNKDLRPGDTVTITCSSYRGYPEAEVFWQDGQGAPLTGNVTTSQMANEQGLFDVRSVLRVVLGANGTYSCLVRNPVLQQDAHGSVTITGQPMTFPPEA

Row | Kd (Human rhB7-H3 (human) [1]) [nM] | koff (Human rhB7-H3 (human) [1]) [s⁻¹] | kon (Human rhB7-H3 (human) [1]) [M⁻¹ s⁻¹] | Kd [3] [nM] | Kd (Human rhB7-H3 (human) [6]) [nM] | koff (Human rhB7-H3 (human) [6]) [s⁻¹] | kon (Human rhB7-H3 (human) [6]) [M⁻¹ s⁻¹] | Binder | also measured
1 |  |  |  |  | 0.499 | 0.000131 | 262000 | Chimeric Fab-SASA (Fab, V domains shown) VH: EVQLQQSGPELVKPGASVKMSCKASGYTFTSYVMHWVRQSPGQGLEGIGYINSYSDGTKYNEKFKGKATLTSDKSSSTAYMELSGLTSEDSAVYYCARWGGLGNGAMDYWGQGTSVTVSS VL: QIVLTQSPAIMSASPGEKVTMTCSVSSSVNYMHWYQQKSGTSPKRWIYDTSKLASGVPARFSASGSGTSYSLTISSMEAEDAATYYCQQWTSNPLTFGAGTKLELKR | 
2 | 0.243 | 0.000117 | 481000 | 0.121 |  |  |  | MIL33B-H3-hIgG1 (antibody, V domains shown) VH: QVQLVQSGAEVKKPGASVKVSCKASGYTFTSYVMHWVRQAPGQRLEWMGYINSYSDGTKYNEKFKGRVTITRDTSASTAYMELSSLRSEDTAVYYCARWGGLGNGAMDYWGQGTLVTVSS VL: EIVLTQSPATLSLSPGERATLSCSVSSSVNYMHWYQQKPGQAPRRLIYDTSKLASGIPARFSGSGSGTDYTLTISSLEPEDFAVYYCQQWTSNPLTFGQGTKLEIK | selectivity ratio, 4Ig-B7-H3 over 2Ig-B7-H3 [7]: 360
3 |  |  |  |  | 0.888 | 0.000244 | 274000 | AHF15945 Fab-SASA (Fab, V domains shown) VH: QVQLVQSGAEVKKPGASVKVSCKASGYTFTSYVMHWVRQAPGQRLEWMGYINSYSDGTKYNEKFKGRVTITSDTSASTAYMELSSLRSEDTAVYYCARWGGLGNGAMDYWGQGTLVTVSS VL: EIVLTQSPATLSLSPGERATLSCSVSSSVNYMHWYQQKPGQAPRRLIYDTSKLASGIPARFSGSGSGTDYTLTISSLEPEDFAVYYCQQWTSNPLTFGQGTKLEIK | 
4 | 0.233 | 0.000139 | 597000 | 0.153 |  |  |  | MIL33B-H1-hIgG1 (antibody, V domains shown) VH: QVQLVQSGAEVKKPGASVKVSCKASGYTFTSYVMHWVRQAPGQRLEWMGYINSYSDGTKYNEKFKGRVTITSDTSASTAYMELSSLRSEDTAVYYCARWGGLGNGAMDYWGQGTLVTVSS VL: EIVLTQSPATLSLSPGERATLSCSVSSSVNYMHWYQQKPGQAPRRLIYDTSKLASGIPARFSGSGSGTDYTLTISSLEPEDFAVYYCQQWTSNPLTFGQGTKLEIK | 

Continued, binder first:

Row | Binder | Kd (Human rhB7-H3 (human) [1]) [nM] | koff (Human rhB7-H3 (human) [1]) [s⁻¹] | kon (Human rhB7-H3 (human) [1]) [M⁻¹ s⁻¹] | Kd [3] [nM] | Kd (Human rhB7-H3 (human) [6]) [nM] | koff (Human rhB7-H3 (human) [6]) [s⁻¹] | kon (Human rhB7-H3 (human) [6]) [M⁻¹ s⁻¹] | also measured
5 | MIL33B chimeric antibody (full-length IgG) (antibody, V domains shown) VH: EVQLQQSGPELVKPGASVKMSCKASGYTFTSYVMHWVRQSPGQGLEGIGYINSYSDGTKYNEKFKGKATLTSDKSSSTAYMELSGLTSEDSAVYYCARWGGLGNGAMDYWGQGTSVTVSS VL: QIVLTQSPAIMSASPGEKVTMTCSVSSSVNYMHWYQQKSGTSPKRWIYDTSKLASGVPARFSASGSGTSYSLTISSMEAEDAATYYCQQWTSNPLTFGAGTKLELKR | 0.148 | 7.16e-05 | 482000 | 0.16 |  |  |  | Kd (Human rhB7-H3 (human) [2]): 0.199 nM; koff (Human rhB7-H3 (human) [2]): 0.000121 s⁻¹; kon (Human rhB7-H3 (human) [2]): 609000 M⁻¹ s⁻¹
6 | MIL33B-mIgG2a (murine MIL33B antibody) (antibody, from a related filing, V domains shown) VH: EVQLQQSGPELVKPGASVKMSCKASGYTFTSYVMHWVRQSPGQGLEGIGYINSYSDGTKYNEKFKGKATLTSDKSSSTAYMELSGLTSEDSAVYYCARWGGLGNGAMDYWGQGTSVTVSS VL: QIVLTQSPAIMSASPGEKVTMTCSVSSSVNYMHWYQQKSGTSPKRWIYDTSKLASGVPARFSASGSGTSYSLTISSMEAEDAATYYCQQWTSNPLTFGAGTKLELK |  |  |  | 0.0807 |  |  |  | Kd [4]: 0.781 nM; Kd [5]: 0.102 nM
7 | Grafted Fab-SASA (Fab, V domains shown) VH: QVQLVQSGAEVKKPGASVKVSCKASGYTFTSYVMHWVRQAPGQRLEWMGYINSYSDGTKYNEKFKGRVTITRDTSASTAYMELSSLRSEDTAVYYCARWGGLGNGAMDYWGQGTLVTVSS VL: EIVLTQSPATLSLSPGERATLSCSVSSSVNYMHWYQQKPGQAPRLLIYDTSKLASGIPARFSGSGSGTDFTLTISSLEPEDFAVYYCQQWTSNPLTFGQGTKLEIKR |  |  |  |  | 28.5 | 0.0117 | 413000 | 
8 | AHF15938 Fab-SASA (Fab, V domains shown) VH: QVQLVQSGAEVKKPGASVKVSCKASGYTFTSYVMHWVRQAPGQRLEWMGYINSYSDGTKYNEKFKGRATITRDTSASTAYMELSSLRSEDTAVYYCARWGGLGNGAMDYWGQGTLVTVSS VL: EIVLTQSPATLSLSPGERATLSCSVSSSVNYMHWYQQKPGQAPRRLIYDTSKLASGIPARFSGSGSGTDYTLTISSLEPEDFAVYYCQQWTSNPLTFGQGTKLEIK |  |  |  |  | 0.00804 | 1.97e-06 | 245000 | 
9 | AHF15948 Fab-SASA (Fab, V domains shown) VH: QVQLVQSGAEVKKPGASVKVSCKASGYTFTSYVMHWVRQAPGQRLEWMGYINSYSDGTKYNEKFKGRVTITRDTSASTAYMELSSLRSEDTAVYYCARWGGLGNGAMDYWGQGTLVTVSS VL: EIVLTQSPATLSLSPGERATLSCSVSSSVNYMHWYQQKPGQAPRRLIYDTSKLASGIPARFSGSGSGTDYTLTISSLEPEDFAVYYCQQWTSNPLTFGQGTKLEIK |  |  |  |  | 0.366 | 9.35e-05 | 255000 | 
10 | MIL33B-H2-hIgG1 (antibody, V domains shown) VH: QVQLVQSGAEVKKPGASVKVSCKASGYTFTSYVMHWVRQAPGQRLEWMGYINSYSDGTKYNEKFKGRATITRDTSASTAYMELSSLRSEDTAVYYCARWGGLGNGAMDYWGQGTLVTVSS VL: EIVLTQSPATLSLSPGERATLSCSVSSSVNYMHWYQQKPGQAPRRLIYDTSKLASGIPARFSGSGSGTDYTLTISSLEPEDFAVYYCQQWTSNPLTFGQGTKLEIK | 0.226 | 0.000105 | 464000 | 0.12 |  |  |  | 
